According to paper PMC7498356:

Tests used:
[1] = biological target: T1, TDRD5 LOTUS domain 3 (L3) (Mus musculus, UniProt Q5VCS6 291-365); assay: pull-down
T1 sequence: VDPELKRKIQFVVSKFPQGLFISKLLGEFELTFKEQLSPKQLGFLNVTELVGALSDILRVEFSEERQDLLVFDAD

[2] = biological target: T2, AT3G52980-LOTUS (plant, UniProt Q9LF94 199-282); assay: ELISA
T2 sequence: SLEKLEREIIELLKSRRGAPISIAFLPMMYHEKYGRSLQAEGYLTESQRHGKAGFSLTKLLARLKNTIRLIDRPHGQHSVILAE

[3] = biological target: T3, human MARF1 L7 (Homo sapiens, UniProt Q9Y4F3 1411-1485); assay: ELISA
T3 sequence: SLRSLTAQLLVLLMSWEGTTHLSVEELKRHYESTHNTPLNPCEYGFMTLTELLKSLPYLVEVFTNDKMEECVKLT

[4] = biological target: T4, Oskar LOTUS (eLOTUS) (Drosophila, UniProt P25158 139-241); assay: ELISA
T4 sequence: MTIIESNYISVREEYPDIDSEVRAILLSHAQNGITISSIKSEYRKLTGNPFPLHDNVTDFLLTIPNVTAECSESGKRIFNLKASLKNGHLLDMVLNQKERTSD

[5] = biological target: T5, TDRD7 L2 (Mus musculus, UniProt Q8K1H1 222-291); assay: ELISA
T5 sequence: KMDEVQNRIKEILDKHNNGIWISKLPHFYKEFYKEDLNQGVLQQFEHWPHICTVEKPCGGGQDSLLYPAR

[6] = biological target: T6, human TDRD5 L1 (Homo sapiens, UniProt Q8NAT2 7-80); assay: ELISA
T6 sequence: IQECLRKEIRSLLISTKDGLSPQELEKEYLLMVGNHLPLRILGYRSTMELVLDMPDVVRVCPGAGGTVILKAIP

[7] = biological target: human TDRD7 L1 (Homo sapiens, UniProt Q8NHU6 3-76); assay: ELISA
Sequence of human TDRD7 L1 (Q8NHU6 3-76): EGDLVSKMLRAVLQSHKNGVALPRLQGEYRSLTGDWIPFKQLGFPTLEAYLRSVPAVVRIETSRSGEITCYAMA

[8] = biological target: T7, Tejas LOTUS (Drosophila, UniProt A1Z9P1 6-79); assay: ELISA
T7 sequence: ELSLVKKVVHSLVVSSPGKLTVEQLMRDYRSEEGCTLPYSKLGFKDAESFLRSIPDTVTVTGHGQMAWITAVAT

[9] = biological target: T8, TDRD7 L3 (Mus musculus, UniProt Q8K1H1 325-394); assay: ELISA
T8 sequence: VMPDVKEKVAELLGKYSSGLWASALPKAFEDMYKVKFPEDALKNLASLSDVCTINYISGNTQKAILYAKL

[10] = biological target: T9, TDRD7 L1 (Mus musculus, UniProt Q8K1H1 3-76); assay: ELISA
T9 sequence: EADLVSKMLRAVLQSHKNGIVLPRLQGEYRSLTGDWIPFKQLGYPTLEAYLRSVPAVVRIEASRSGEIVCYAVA

[11] = biological target: T10, TP0894-LOTUS (Treponema pallidum subsp. pallidum str. …, UniProt O83864 178-253); assay: ELISA
T10 sequence: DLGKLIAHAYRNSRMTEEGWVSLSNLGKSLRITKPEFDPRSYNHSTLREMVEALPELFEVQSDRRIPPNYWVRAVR

[12] = biological target: T11, human MARF1 L1 (Homo sapiens, UniProt Q9Y4F3 875-949); assay: ELISA
T11 sequence: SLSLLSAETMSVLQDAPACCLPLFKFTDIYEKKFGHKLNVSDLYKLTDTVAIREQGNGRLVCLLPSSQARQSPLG

[13] = biological target: T1, TDRD5 LOTUS domain 3 (L3); assay: pull-down, ELISA
[14] = biological target: T12, TDRD5 LOTUS domain 1 (L1) (Mus musculus, UniProt Q5VCS6 7-80); assay: pull-down
T12 sequence: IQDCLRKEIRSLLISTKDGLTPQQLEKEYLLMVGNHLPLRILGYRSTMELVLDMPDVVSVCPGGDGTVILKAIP

[15] = biological target: T13, TDRD5 LOTUS domain 2 (L2) (Mus musculus, UniProt Q5VCS6 122-197); assay: pull-down
T13 sequence: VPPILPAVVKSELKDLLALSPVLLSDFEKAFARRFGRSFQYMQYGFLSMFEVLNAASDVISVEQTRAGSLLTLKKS

[16] = biological target: T12, TDRD5 LOTUS domain 1 (L1); assay: pull-down, ELISA
[17] = biological target: T13, TDRD5 LOTUS domain 2 (L2); assay: pull-down, ELISA

GUGUGUGUGUGUGUGUGUGUGUGUGUGUGU (ssRNA) [Poly(GU)]
binding result [1]: no binding

UUAGGGUUAGGGUUAGGGUUAGGG (structured_RNA) [TERRA G4 RNA]
binding result [2]: binds
binding result [3]: binds
binding result [4]: binds
binding result [5]: binds
binding result [6]: binds
binding result [7]: binds
binding result [8]: binds
binding result [9]: binds
binding result [10]: binds
binding result [11]: binds
binding result [12]: binds
binding result [13]: no binding

AGGAGGGAAGGGGAGGGGAGGG (structured_RNA) [Cluster G4-2 RNA]
binding result [13]: no binding

CACACACACACACACACACACACACACACA (ssRNA) [Poly(CA)]
binding result [14]: no binding
binding result [15]: no binding
binding result [1]: no binding

GGUCCGCAGCCGAGUCCGGGUCCG (ssRNA) [Cluster G4-1 mut RNA]
binding result [2]: no binding
binding result [3]: no binding
binding result [4]: no binding
binding result [5]: no binding
binding result [6]: no binding
binding result [7]: no binding
binding result [8]: no binding
binding result [9]: no binding
binding result [10]: no binding
binding result [11]: no binding
binding result [12]: no binding
binding result [14]: no binding
binding result [15]: no binding
binding result [1]: no binding

AGGACCGAAGCCGAGCCGAGCC (ssRNA) [Cluster G4-2 mut RNA]
binding result [14]: no binding
binding result [15]: no binding
binding result [1]: no binding

GAGAGAGAGAGAGAGAGAGAGAGAGAGAGA (ssRNA) [Poly(GA)]
binding result [1]: no binding

CUCUCUCUCUCUCUCUCUCUCUCUCUCUCU (ssRNA) [Poly(CU)]
binding result [14]: no binding
binding result [15]: no binding
binding result [1]: no binding

AAAAAAAAAAAAAAAAAAA (ssRNA) [Poly(A)]
binding result [16]: no binding
binding result [17]: no binding
binding result [13]: no binding

UUUUUUUUUUUUUUUUUUU (ssRNA) [Poly(U)]
binding result [16]: no binding
binding result [17]: no binding
binding result [13]: no binding

UUACCGUUACCGUUACCGUUACCG (ssRNA) [TERRA G4 mut RNA]
binding result [2]: no binding
binding result [3]: no binding
binding result [4]: no binding
binding result [5]: no binding
binding result [6]: no binding
binding result [7]: no binding
binding result [8]: no binding
binding result [9]: no binding
binding result [10]: no binding
binding result [11]: no binding
binding result [12]: no binding
binding result [14]: no binding
binding result [15]: no binding
binding result [1]: no binding
